The chains are these.
B4: EagT6 Q58A (natural protein)
chain: MTLYRLHEADLEIPDAWQDQSINIFKLPASGPAREASFVISRDASQGDAPFADYVARALENAEKQLPGFKLHKRWDINIHGHAAVLLDYQWQREGRDLMLRQVFIERRPAVLITTLTTTPADLPHHEPAWKQAMQTLVPRPTPS
notes: also called EagT6-TMD Q58A (in complex)

Series [1] has as its target Rhs1(1–59) (Salmonella Typhimurium). Briefly: stopped-flow fluorescence unfolding kinetics; co-purified complex or apo chaperone, 10 μM diluted 1/10 into GdmCl in 50 mM Tris, 250 mM NaCl, 1 mM BME, 20 °C; rate extrapolated to 0 M GdmCl.
Series [2] deals with SciW (Salmonella Typhimurium). Briefly: dynamic light scattering; 50 mM Tris pH 8.0, 250 mM NaCl, 1 mM BME, 25 °C, 0.5 mg/ml protein.
Series [3] concerns the target SciW Q106A (Salmonella Typhimurium). The series is described as above.
The target of series [4] is SciW I25F (Salmonella Typhimurium). The series is described as above.
The target in series [5] is Tse6(1–61) (Pseudomonas aeruginosa) (UniProt Q9I739). Briefly: GdmCl denaturation followed by steady-state tryptophan fluorescence (unfolding free energy of the co-purified complex against the apo chaperone); 1 μM protein dimer, 25 mM Tris pH 7.0, GdmCl series, room temperature, 1 h equilibration; KTMD calculated by Eq. (7) from ΔG° of unfolding extrapolated to 0 M denaturant.

Series [6] concerns the target SciW Q58A (Salmonella Typhimurium). Briefly: dynamic light scattering; 50 mM Tris pH 8.0, 250 mM NaCl, 1 mM BME, 25 °C, 0.5 mg/ml protein.
Series [7] has as its target SciW S41A (Salmonella Typhimurium). The series is described as above.
Series [8] deals with the molecule itself. Described as above.
The series “EagT6 Q58A” deals with B4. Briefly: GdmCl denaturation followed by steady-state tryptophan fluorescence (unfolding free energy of the co-purified complex against the apo chaperone); 1 μM protein dimer, 25 mM Tris pH 7.0, GdmCl series, room temperature, 1 h equilibration; KTMD calculated by Eq. (7) from ΔG° of unfolding extrapolated to 0 M denaturant. The note with it: both partners purified.

For the molecule SciW L66A (natural protein), the lifetime of the complex in series [1] was 2 h.
As to SciW (natural protein), in series [1], the lifetime of the complex was 15 h. In series [2], the stoichiometry N came to 2.
Turning to SciW Q106A (natural protein), the stoichiometry N in series [3] was 2.
Turning to SciW I25F (natural protein), the stoichiometry N in series [4] was 2.
“EagT6 L66A (from UniProt Q9I738) (natural protein)”: the Ka in series [5] is under 1e+06 M⁻¹.
Consider SciW Q58A (natural protein), for which the lifetime of the complex in [1] was 0.267 h. Also, in series [6], the stoichiometry N came to 2.
Regarding SciW S41A (natural protein), the stoichiometry N in [7] amounted to 2.

B1: EagT6 I24F (natural protein)
chain: MTLYRLHEADLEIPDAWQDQSINFFKLPASGPAREASFVISRDASQGDAPFADYVARQLENAEKQLPGFKLHKRWDINIHGHAAVLLDYQWQREGRDLMLRQVFIERRPAVLITTLTTTPADLPHHEPAWKQAMQTLVPRPTPS
For the molecule B1, the “stoichiometry N” value in series [8] came to 2.

B2: EagT6 L66A (natural protein)
chain: MTLYRLHEADLEIPDAWQDQSINIFKLPASGPAREASFVISRDASQGDAPFADYVARQLENAEKQAPGFKLHKRWDINIHGHAAVLLDYQWQREGRDLMLRQVFIERRPAVLITTLTTTPADLPHHEPAWKQAMQTLVPRPTPS
notes: also called EagT6-TMD L66A (in complex)
Regarding B2, the “stoichiometry N” value in [8] is 2.

B3: EagT6 S41A (natural protein)
chain: MTLYRLHEADLEIPDAWQDQSINIFKLPASGPAREASFVIARDASQGDAPFADYVARQLENAEKQLPGFKLHKRWDINIHGHAAVLLDYQWQREGRDLMLRQVFIERRPAVLITTLTTTPADLPHHEPAWKQAMQTLVPRPTPS
For B3, the “stoichiometry N” value in [8] stood at 2.
As to B4, the “stoichiometry N” value in series [8] amounted to 2.

B5: EagT6 Q102A (natural protein)
chain: MTLYRLHEADLEIPDAWQDQSINIFKLPASGPAREASFVISRDASQGDAPFADYVARQLENAEKQLPGFKLHKRWDINIHGHAAVLLDYQWQREGRDLMLRAVFIERRPAVLITTLTTTPADLPHHEPAWKQAMQTLVPRPTPS
B5: the “stoichiometry N” value in series [8] was found to be 2.

B6: Tse6(1–61) (domain or fragment)
chain: MDAQAAARLGDEIAHGFGVAAMVAGAVAGALIGAAVVAATAATGGLAAVILAGSIAAGGLS
notes: not shown: His6, C-terminal, kept
On to B6, for which the Kd with EagT6 Q58A was about 0.03 nM.

The values above are taken from publication PMC12881460, “Biophysical characterization of Eag chaperones suggests the mechanism of effector transmembrane domain release” (Nature Communications, 2026).
